The results in this text go back to PMC9845754.

For the experiment, the target named is taxol-stabilized microtubules polymerized from porcine brain tubulin (porcine) (UniProt P02550). Put plainly: co-sedimentation; 0, 1, 2, 4, 6, 8 or 10 µM ICR2-His6 added to taxol-stabilized microtubules (5 µM tubulin) in PEMT (100 mM PIPES, 1 mM EGTA, 1 mM MgCl2, 1 mM GTP, 20 µM taxol, pH 6.9); 100,000 g, 25°C, 15 min; SDS-PAGE, Coomassie, densitometry.

Substance “ICR2-His6 (from UniProt Q9ZQC5 56-583) (natural protein)” showed a stoichiometry N (mol ICR2-His6 per mole of tubulin) of 0.85.
